Substrate in data set [1]: NC(=O)C1=CN([C@@H]2O[C@H](COP(=O)(O)OP(=O)(O)OC[C@H]3O[C@@H](n4cnc5c(N)ncnc54)[C@H](O)[C@@H]3O)[C@@H](O)[C@H]2O)C=CC1
Nature of the data set: purified protein. The settings on record: varied: cofactor.

Substrate in data set [2]: NC(=O)C1=CN([C@@H]2O[C@H](COP(=O)(O)OP(=O)(O)OC[C@H]3O[C@@H](n4cnc5c(N)ncnc54)[C@H](OP(=O)(O)O)[C@@H]3O)[C@@H](O)[C@H]2O)C=CC1
Nature of the data set: purified protein. The settings on record: varied: cofactor.

B1: SMFMO (Stenotrophomonas maltophilia K279a) (protein)
chain: MDSVDVVVIGGGQSGLSAGYFLRRSGLSYVILDAEASPGGAWQHAWHSLHLFSPAGWSSIPGWPMPASQGPYPARAEVLAYLAQYEQKYALPVLRPIRVQRVSHFGERLRVVARDGRQWLARAVISATGTWGEAYTPEYQGLESFAGIQLHSAHYSTPAPFAGMRVAIIGGGNSGAQILAEVSTVAETTWITQHEPAFLADDVDGRVLFERATERWKAQQEGREPDLPPGGFGDIVMVPPVLDARARGVLAAVPPPARFSPTGMQWADGTERAFDAVIWCTGFRPALSHLKGLDLVTPQGQVEVDGSGLRALAVPSVWLLGYGDWNGMASATLIGVTRYAREAVRQVTAYCADHQDR
By kcat is commonly meant the maximal rate divided by the concentration of active sites. Broadly, the kcat/Km is the turnover number divided by the Michaelis constant. Turning to B1, in data set [1], the Km is 23.7 ± 9.1 M x 10^-6, the kcat was 0.029 ± 0.003 s⁻¹ and the kcat/Km was 1220 M⁻¹ s⁻¹. Besides, in data set [2], the Km was found to be 27.3 ± 5.3 M x 10^-6, the kcat was 0.022 ± 0.002 s⁻¹ and the kcat/Km was 805 M⁻¹ s⁻¹.
